The supplement of paper PMC7877785
± gives the uncertainty stated by the source.

Assay: self-splicing fitness, log relative to wild type (ln ratio); higher = more splicing; Tetrahymena group I intron in knt gene, E. coli kanamycin selection, DiMSum; sequences stand for … in CUCUCU…GGAGGGAAAAGUUAUCAGGCAUGCACCUGGUAGCUAGUCUUUAAACCAAUAGAUUGCAUCGGUUUAAAAGGCAAGACCGUCAAAUUGCGGGAAAGGGGUCAACAGCCGUUCAGUACCAAGUCUCAGGGGAAACUUUGAGAUGGCCUUGCAAAGGGUAUGGUAAUAAGCUGACGGACAUGGUCCUAACCACGCAGCCAAGUCCUAAGUCAACAGAUCUUCUGUUGAUAUGGAUGCAGUUCACAGACUAAAUGUCGGUCGGGGAAGAUGUAUUCUUCUCAUAAGAUAUAGUCGGACCUCUCCUUAAUGGGAGCUAGCGGAUGAAGUGAUGCAACACUGGAGCCGCUGGGAACUAAUUUGUAUGCGAAAGUAUAUUGAUUAGUUUUGGAGUACUCGUGGUCG
Procedure, shortened: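 DiMSum derived fitness as the error-weighted combination of fold changes across replicates, kanamycin versus no kanamycin, normalised to wild type. E. coli BL21(DE3) held the library, which randomised all eight P1ex-region intron nucleotides within the knt kanamycin-resistance gene on pET-22b(+). Six replicate transformations grew overnight at 37°C or 30°C on LB agar with or without 25 μg/mL kanamycin, also containing 100 μg/mL carbenicillin, 50 μM IPTG and 0.2% rhamnose, and pooled colonies were amplicon-sequenced on an Illumina HiSeq 2500.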

Row | Sequence | self-splicing fitness (ln) (30 °C) | self-splicing fitness (ln) (37 °C)
1 | AACUAGCAAUAUUACGUGUU | -2.68 ± 0.11 | -2.45 ± 0.16
2 | AACUAGCAAUAUUACGUUUG | -3.27 ± 0.15 | -1.72 ± 0.14
3 | AAGAAGCAAUAUUACGAAAU | -1.98 ± 0.17 | -2.03 ± 0.19
4 | AAGAAGCAAUAUUACGACAC | -0.918 ± 0.12 | -0.625 ± 0.14
5 | AAGAAGCAAUAUUACGACCA | -0.349 ± 0.1 | -0.795 ± 0.2
6 | AAGAAGCAAUAUUACGAGAU | -3.43 ± 0.18 | -1.56 ± 0.14
7 | AAGAAGCAAUAUUACGAGCG | -0.646 ± 0.14 | -0.754 ± 0.2
8 | AAGAAGCAAUAUUACGCACC | -1.11 ± 0.12 | -0.644 ± 0.15
9 | AAGAAGCAAUAUUACGCAGU | -2.66 ± 0.18 | -2.08 ± 0.15
10 | AAGAAGCAAUAUUACGCAUU | -2.89 ± 0.21 | -1.52 ± 0.21
11 | AAGAAGCAAUAUUACGCCCU | 0.319 ± 0.11 | 0.0852 ± 0.12
12 | AAGAAGCAAUAUUACGCCUC | -1.82 ± 0.26 | -1.85 ± 0.27
13 | AAGAAGCAAUAUUACGCUAA | -1.69 ± 0.14 | -0.682 ± 0.15
14 | AAGAAGCAAUAUUACGCUGC | -2.58 ± 0.32 | -1.75 ± 0.35
15 | AAGAAGCAAUAUUACGGACC | -1.28 ± 0.13 | -0.312 ± 0.18
16 | AAGAAGCAAUAUUACGGAGG | -3.92 ± 0.29 | -2.96 ± 0.32
17 | AAGAAGCAAUAUUACGGAGU | -3.02 ± 0.15 | -2.86 ± 0.17
18 | AAGAAGCAAUAUUACGGCCU | -0.278 ± 0.11 | -0.574 ± 0.14
19 | AAGAAGCAAUAUUACGGCUC | -1.19 ± 0.12 | -0.0707 ± 0.15
20 | AAGAAGCAAUAUUACGGCUG | -0.496 ± 0.077 | -0.25 ± 0.12
21 | AAGAAGCAAUAUUACGGUAA | -2.01 ± 0.19 | -0.929 ± 0.16
22 | AAGAAGCAAUAUUACGGUCC | -1.1 ± 0.14 | 0.249 ± 0.16
23 | AAGAAGCAAUAUUACGGUGG | -2.93 ± 0.13 | -1.98 ± 0.13
24 | AAGAAGCAAUAUUACGUACC | -0.392 ± 0.14 | 0.219 ± 0.19

Row | Sequence | self-splicing fitness (ln) (30 °C) | self-splicing fitness (ln) (37 °C)
25 | AAGAAGCAAUAUUACGUACU | 0.124 ± 0.082 | 0.141 ± 0.099
26 | AAGAAGCAAUAUUACGUAGG | -2.09 ± 0.082 | -1.14 ± 0.12
27 | AAGAAGCAAUAUUACGUCAA | -1.78 ± 0.11 | -0.843 ± 0.088
28 | AAGAAGCAAUAUUACGUGGC | -4.15 ± 0.22 | -2.99 ± 0.2
29 | AAGCAGCAAUAUUACGAAAG | -3.93 ± 0.23 | -2.29 ± 0.17
30 | AAGCAGCAAUAUUACGACAG | -3.04 ± 0.13 | -1.54 ± 0.12
31 | AAGCAGCAAUAUUACGACGU | -0.298 ± 0.067 | 0.18 ± 0.077
32 | AAGCAGCAAUAUUACGAUCA | -1.28 ± 0.091 | -0.405 ± 0.11
33 | AAGCAGCAAUAUUACGCCUG | -2.41 ± 0.13 | -1.58 ± 0.14
34 | AAGCAGCAAUAUUACGCGAC | -0.688 ± 0.22 | -1.95 ± 0.25
35 | AAGCAGCAAUAUUACGCGCU | -2.53 ± 0.11 | -1.73 ± 0.11
36 | AAGCAGCAAUAUUACGCGGA | -2.59 ± 0.13 | -1.46 ± 0.11
37 | AAGCAGCAAUAUUACGCGUA | -1.57 ± 0.11 | -0.515 ± 0.1
38 | AAGCAGCAAUAUUACGGCGC | -0.59 ± 0.2 | -1.02 ± 0.19
39 | AAGCAGCAAUAUUACGGGAC | -4.44 ± 0.46 | -3.38 ± 0.39
40 | AAGCAGCAAUAUUACGGGUA | -1.91 ± 0.15 | -2.31 ± 0.16
41 | AAGCAGCAAUAUUACGGGUU | -2.1 ± 0.094 | -1.61 ± 0.12
42 | AAGCAGCAAUAUUACGGUCG | -1.34 ± 0.061 | -0.879 ± 0.093
43 | AAGCAGCAAUAUUACGUCAA | -1.1 ± 0.091 | -1.36 ± 0.096
44 | AAGCAGCAAUAUUACGUGCU | -3.6 ± 0.15 | -1.85 ± 0.11
45 | AAGCAGCAAUAUUACGUUAG | -3.74 ± 0.18 | -2.52 ± 0.15
46 | AAGGAGCAAUAUUACGAAAA | -2.9 ± 0.39 | -1.84 ± 0.35
47 | AAGGAGCAAUAUUACGAAUC | – | -1.46 ± 0.36
48 | AAGGAGCAAUAUUACGACGG | – | -0.954 ± 0.16

Row | Sequence | self-splicing fitness (ln) (30 °C) | self-splicing fitness (ln) (37 °C)
49 | AAGGAGCAAUAUUACGAGAG | -1.62 ± 0.17 | -2.58 ± 0.34
50 | AAGGAGCAAUAUUACGAGUA | -3.6 ± 0.43 | -3.21 ± 0.4
51 | AAGGAGCAAUAUUACGCACU | -1.53 ± 0.17 | -0.454 ± 0.18
52 | AAGGAGCAAUAUUACGCCCC | -1.19 ± 0.47 | -1.42 ± 0.46
53 | AAGGAGCAAUAUUACGCGGU | -3.56 ± 0.26 | -1.37 ± 0.26
54 | AAGGAGCAAUAUUACGCGUG | -4.9 ± 0.45 | -2.1 ± 0.18
55 | AAGGAGCAAUAUUACGCUGA | -3.54 ± 0.23 | -1.44 ± 0.15
56 | AAGGAGCAAUAUUACGGAAU | -3.44 ± 0.25 | -2.71 ± 0.26
57 | AAGGAGCAAUAUUACGGAGG | -2.97 ± 0.22 | -1.59 ± 0.23
58 | AAGGAGCAAUAUUACGGCGA | -2.84 ± 0.32 | -0.936 ± 0.3
59 | AAGGAGCAAUAUUACGGGGG | -2.94 ± 0.19 | -0.0467 ± 0.21
60 | AAGGAGCAAUAUUACGUAGG | -3.12 ± 0.22 | -2.02 ± 0.44
61 | AAGGAGCAAUAUUACGUUCC | -3.48 ± 0.32 | -2.98 ± 0.35
62 | AAGUAGCAAUAUUACGAAAA | -2.83 ± 0.28 | -2.14 ± 0.26
63 | AAGUAGCAAUAUUACGAAGA | -2.57 ± 0.34 | -2.06 ± 0.34
64 | AAGUAGCAAUAUUACGAAGG | -2.75 ± 0.24 | -3.26 ± 0.47
65 | AAGUAGCAAUAUUACGACGG | -1.74 ± 0.29 | -1.66 ± 0.34
66 | AAGUAGCAAUAUUACGAGAC | -2.6 ± 0.33 | –
67 | AAGUAGCAAUAUUACGAGGA | -2.04 ± 0.32 | -2.12 ± 0.34
68 | AAGUAGCAAUAUUACGCAGC | -3.59 ± 0.34 | -2.3 ± 0.24
69 | AAGUAGCAAUAUUACGCAGG | -3.61 ± 0.27 | -1.87 ± 0.15
70 | AAGUAGCAAUAUUACGCCAC | -3.93 ± 0.36 | -2.49 ± 0.42
71 | AAGUAGCAAUAUUACGCCAU | -2.41 ± 0.23 | -0.903 ± 0.26
72 | AAGUAGCAAUAUUACGCCCG | -1.26 ± 0.23 | -0.559 ± 0.22

Row | Sequence | self-splicing fitness (ln) (30 °C) | self-splicing fitness (ln) (37 °C)
73 | AAGUAGCAAUAUUACGCCGA | -1.53 ± 0.16 | -1.39 ± 0.17
74 | AAGUAGCAAUAUUACGCGAG | -1.74 ± 0.11 | -0.889 ± 0.13
75 | AAGUAGCAAUAUUACGCGCG | -0.335 ± 0.087 | -0.184 ± 0.12
76 | AAGUAGCAAUAUUACGCGUU | -2.09 ± 0.18 | -0.705 ± 0.17
77 | AAGUAGCAAUAUUACGCUGG | -2 ± 0.12 | -0.92 ± 0.12
78 | AAGUAGCAAUAUUACGGACA | -1.7 ± 0.12 | -0.343 ± 0.12
79 | AAGUAGCAAUAUUACGGAGA | -3.93 ± 0.37 | -2.34 ± 0.39
80 | AAGUAGCAAUAUUACGGCCU | -0.0359 ± 0.073 | -0.35 ± 0.091
81 | AAGUAGCAAUAUUACGGGCC | – | -1.88 ± 0.37
82 | AAGUAGCAAUAUUACGGUAU | -2.25 ± 0.097 | -1.88 ± 0.092
83 | AAGUAGCAAUAUUACGGUUU | -0.353 ± 0.064 | -0.458 ± 0.098
84 | AAGUAGCAAUAUUACGUAUA | -1.96 ± 0.13 | -2.15 ± 0.14
85 | AAGUAGCAAUAUUACGUUGA | -3.64 ± 0.32 | -2.29 ± 0.22
86 | AAGUAGCAAUAUUACGUUUU | -2.71 ± 0.13 | -2.17 ± 0.17
87 | AAUAAGCAAUAUUACGACGA | -0.785 ± 0.11 | -0.362 ± 0.14
88 | AAUAAGCAAUAUUACGAGGA | -3.05 ± 0.43 | -1.94 ± 0.33
89 | AAUAAGCAAUAUUACGAGGG | -3.7 ± 0.37 | -2.9 ± 0.34
90 | AAUAAGCAAUAUUACGCAGC | -3.5 ± 0.26 | -2.1 ± 0.23
91 | AAUAAGCAAUAUUACGCAUU | -2.97 ± 0.21 | -2.56 ± 0.28
92 | AAUAAGCAAUAUUACGCCAA | -2.17 ± 0.21 | -1.46 ± 0.18
93 | AAUAAGCAAUAUUACGCCAG | -1.88 ± 0.18 | -0.98 ± 0.25
94 | AAUAAGCAAUAUUACGCCGC | -2.65 ± 0.46 | -1.49 ± 0.28
95 | AAUAAGCAAUAUUACGCCUG | -0.724 ± 0.13 | 0.286 ± 0.17
96 | AAUAAGCAAUAUUACGCGGA | -2.57 ± 0.22 | -1.33 ± 0.19
